Assay results taken from US20100323974A1.

Columns and labels:
[1] = target: poly(ADP-ribose) polymerase I (PARP-1), native, co-purified from HeLa cells (UniProt P09874); assay: cell-based or functional assay
[2] = target: mutated e-mH2A1.1 nucleosome complex (HXTX motif at positions 213-216 converted to AAAA) (human) (UniProt O75367); assay: tagged nucleosome complexes isolated at 300 mM NaCl, silver stained SDS-PAGE, PARP-1 relative to histone H1
Sequence of mutated e-mH2A1.1 nucleosome complex (HXTX motif at positions 213-216 converted to AAAA) (human) (O75367 whole entry, change not shown, one chain of several): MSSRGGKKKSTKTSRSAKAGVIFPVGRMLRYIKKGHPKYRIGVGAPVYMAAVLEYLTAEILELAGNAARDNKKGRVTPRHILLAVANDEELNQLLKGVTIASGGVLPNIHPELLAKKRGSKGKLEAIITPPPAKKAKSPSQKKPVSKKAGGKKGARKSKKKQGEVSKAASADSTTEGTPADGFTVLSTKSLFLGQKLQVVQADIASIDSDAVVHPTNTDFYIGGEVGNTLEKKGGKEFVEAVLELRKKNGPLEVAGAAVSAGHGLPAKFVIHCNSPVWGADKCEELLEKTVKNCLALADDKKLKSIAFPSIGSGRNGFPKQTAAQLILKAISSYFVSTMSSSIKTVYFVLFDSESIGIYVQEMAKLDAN

Sequence of poly(ADP-ribose) polymerase I (PARP-1), native, co-purified from HeLa cells (P09874 2-1014 limits assumed): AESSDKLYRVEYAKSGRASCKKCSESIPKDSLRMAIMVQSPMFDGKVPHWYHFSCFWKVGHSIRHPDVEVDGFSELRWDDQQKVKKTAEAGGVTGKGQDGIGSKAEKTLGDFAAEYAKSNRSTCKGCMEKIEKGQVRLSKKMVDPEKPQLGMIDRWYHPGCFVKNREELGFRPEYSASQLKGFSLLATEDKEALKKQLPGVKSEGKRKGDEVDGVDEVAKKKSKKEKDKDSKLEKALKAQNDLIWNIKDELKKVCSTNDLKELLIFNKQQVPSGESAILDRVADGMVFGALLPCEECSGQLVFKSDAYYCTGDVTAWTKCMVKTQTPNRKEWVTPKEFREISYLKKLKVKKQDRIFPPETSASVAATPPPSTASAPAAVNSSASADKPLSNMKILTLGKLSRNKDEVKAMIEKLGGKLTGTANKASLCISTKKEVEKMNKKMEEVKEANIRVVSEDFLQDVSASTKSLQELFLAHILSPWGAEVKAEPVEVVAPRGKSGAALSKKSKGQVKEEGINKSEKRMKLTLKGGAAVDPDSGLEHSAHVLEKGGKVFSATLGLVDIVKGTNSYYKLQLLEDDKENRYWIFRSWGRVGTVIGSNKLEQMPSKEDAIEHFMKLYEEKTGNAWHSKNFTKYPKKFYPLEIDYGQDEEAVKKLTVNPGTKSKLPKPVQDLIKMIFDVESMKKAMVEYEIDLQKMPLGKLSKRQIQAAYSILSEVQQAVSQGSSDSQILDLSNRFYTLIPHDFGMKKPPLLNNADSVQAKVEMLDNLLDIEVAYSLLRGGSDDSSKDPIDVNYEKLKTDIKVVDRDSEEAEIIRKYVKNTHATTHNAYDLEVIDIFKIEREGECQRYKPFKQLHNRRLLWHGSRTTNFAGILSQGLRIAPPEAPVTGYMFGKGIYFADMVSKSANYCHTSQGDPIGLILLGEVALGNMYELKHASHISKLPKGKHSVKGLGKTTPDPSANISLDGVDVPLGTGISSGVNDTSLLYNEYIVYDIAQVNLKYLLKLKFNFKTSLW

Substance	extent of PARP-1 labeling during the first minute, against PARP-1 associated with the wild type e-mH2A1.1 nucleosomes [1]	amount of PARP-1 associated, percent of that associated with the WT emH2A1.1 nucleosome complex [2]
mutated e-mH2A1.1 nucleosome complex (HXTX motif at positions 213-216 converted to AAAA) (from UniProt O75367 1-369)	37 times	
poly(ADP-ribose) polymerase I (PARP-1), native, co-purified from HeLa cells (from UniProt P09874 2-1014)		8 to 10%
